Assay results taken from US20240209099A1 (SUZHOU TRANSCENTA THERAPEUTICS, published 2024).

Assays:
[1] = molecular target: T1, Recombinant Rhesus macaque VEGFR2/KDR Protein, His tag (rhesus macaque); test: ELISA, rhesus VEGFR2-his coated, anti-human Fc-HRP; antibody made in CHO cells
T1 construct: Expressed in HEK293, bought from ACRO Biosystems; also called rhesus VEGFR2-his; rhesus VEGFR2
T1 chain: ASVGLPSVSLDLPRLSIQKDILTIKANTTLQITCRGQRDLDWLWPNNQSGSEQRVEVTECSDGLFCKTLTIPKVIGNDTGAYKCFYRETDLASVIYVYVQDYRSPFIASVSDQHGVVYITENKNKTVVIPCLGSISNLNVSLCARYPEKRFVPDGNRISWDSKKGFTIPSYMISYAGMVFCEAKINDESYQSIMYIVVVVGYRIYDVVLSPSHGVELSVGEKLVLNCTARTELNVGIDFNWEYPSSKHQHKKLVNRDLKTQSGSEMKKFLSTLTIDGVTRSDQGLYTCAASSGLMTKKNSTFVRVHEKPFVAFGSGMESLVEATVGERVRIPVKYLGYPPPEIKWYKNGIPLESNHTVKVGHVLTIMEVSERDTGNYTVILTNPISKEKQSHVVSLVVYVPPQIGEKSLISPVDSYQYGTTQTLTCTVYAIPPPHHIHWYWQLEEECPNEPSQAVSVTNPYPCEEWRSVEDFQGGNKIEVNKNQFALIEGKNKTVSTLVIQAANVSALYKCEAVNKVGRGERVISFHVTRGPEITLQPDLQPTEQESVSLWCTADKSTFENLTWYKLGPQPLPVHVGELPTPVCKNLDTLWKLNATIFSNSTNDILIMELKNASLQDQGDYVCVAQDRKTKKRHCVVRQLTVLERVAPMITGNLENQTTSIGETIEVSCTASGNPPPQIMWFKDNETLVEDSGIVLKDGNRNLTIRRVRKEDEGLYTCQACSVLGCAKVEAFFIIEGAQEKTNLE

[2] = molecular target: T2, Recombinant Human VEGFR2/KDR Protein, His tag (hVEGFR2-his) (human, UniProt P35968 20-764); test: SPR (Biacore), antibody captured by anti-Fc, antigen 2.5-80 nM
T2 construct: Expressed in HEK293, bought from ACRO Biosystems; also called human VEGFR2-his; Human VEGFR2/KDR-His
In short: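 Human or mouse Fc-captured antibody (200–300 RU) on anti-Fc CM5 surface; antigen injected at 2.5–80 nM in HBS-EP pH 7.4 with 180 s association. Reference-cell-subtracted sensorgrams; regeneration with glycine pH 1.5.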

human VEGFR1 protein = molecular target: T3, human VEGFR1 protein (human, UniProt P17948 27-756); test: ELISA, 1 µg/ml antigen coated, 1 µg/ml antibody
T3 construct: also called Sino Biological 10136-H08H
T3 sequence (P17948 27-756 limits assumed): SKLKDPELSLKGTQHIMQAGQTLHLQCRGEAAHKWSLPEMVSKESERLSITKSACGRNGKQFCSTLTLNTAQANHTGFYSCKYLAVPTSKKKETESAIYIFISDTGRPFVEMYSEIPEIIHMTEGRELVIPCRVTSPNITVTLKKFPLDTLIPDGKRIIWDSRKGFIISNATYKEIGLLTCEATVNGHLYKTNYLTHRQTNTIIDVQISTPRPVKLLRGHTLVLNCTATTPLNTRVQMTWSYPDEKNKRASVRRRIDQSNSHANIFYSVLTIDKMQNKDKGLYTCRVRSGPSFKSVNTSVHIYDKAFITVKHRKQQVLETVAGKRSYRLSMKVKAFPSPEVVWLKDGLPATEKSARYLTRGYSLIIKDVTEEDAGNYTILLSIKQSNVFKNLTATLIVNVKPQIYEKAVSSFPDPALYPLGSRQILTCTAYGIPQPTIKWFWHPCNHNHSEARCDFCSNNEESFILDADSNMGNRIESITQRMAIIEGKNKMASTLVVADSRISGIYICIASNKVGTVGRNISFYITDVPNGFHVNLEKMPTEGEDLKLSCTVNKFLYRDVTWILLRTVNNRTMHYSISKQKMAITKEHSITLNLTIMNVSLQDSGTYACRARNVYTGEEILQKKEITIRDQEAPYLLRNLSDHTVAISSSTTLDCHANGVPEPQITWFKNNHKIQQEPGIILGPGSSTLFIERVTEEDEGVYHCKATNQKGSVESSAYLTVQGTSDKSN
Description: (§1) Briefly, 1 μg/ml human VEGFR1 (Sino Biological, cat #10136-H08H), VEGFR2 (Acrobiosystem, cat #KDR-H5227) and VEGFR3 (Sino Biological, cat #10806-H08H) protein were coated overnight at 4° C. 1 μg/ml humanized antibodies (48-H3L1 and 54-H2L1, produced in CHO cells or Ramucirumab from Eli Lilly Germany, lot #20150819) were added for binding to coated antigen. Secondary antibody HRP conjugated goat anti-human Fc antibody were added for detection of binding signal.

human VEGFR3 protein = molecular target: T4, human VEGFR3 protein (human, UniProt P35916 25-776); test: ELISA, 1 µg/ml antigen coated, 1 µg/ml antibody
T4 construct: also called Sino Biological 10806-H08H
T4 sequence (looked up): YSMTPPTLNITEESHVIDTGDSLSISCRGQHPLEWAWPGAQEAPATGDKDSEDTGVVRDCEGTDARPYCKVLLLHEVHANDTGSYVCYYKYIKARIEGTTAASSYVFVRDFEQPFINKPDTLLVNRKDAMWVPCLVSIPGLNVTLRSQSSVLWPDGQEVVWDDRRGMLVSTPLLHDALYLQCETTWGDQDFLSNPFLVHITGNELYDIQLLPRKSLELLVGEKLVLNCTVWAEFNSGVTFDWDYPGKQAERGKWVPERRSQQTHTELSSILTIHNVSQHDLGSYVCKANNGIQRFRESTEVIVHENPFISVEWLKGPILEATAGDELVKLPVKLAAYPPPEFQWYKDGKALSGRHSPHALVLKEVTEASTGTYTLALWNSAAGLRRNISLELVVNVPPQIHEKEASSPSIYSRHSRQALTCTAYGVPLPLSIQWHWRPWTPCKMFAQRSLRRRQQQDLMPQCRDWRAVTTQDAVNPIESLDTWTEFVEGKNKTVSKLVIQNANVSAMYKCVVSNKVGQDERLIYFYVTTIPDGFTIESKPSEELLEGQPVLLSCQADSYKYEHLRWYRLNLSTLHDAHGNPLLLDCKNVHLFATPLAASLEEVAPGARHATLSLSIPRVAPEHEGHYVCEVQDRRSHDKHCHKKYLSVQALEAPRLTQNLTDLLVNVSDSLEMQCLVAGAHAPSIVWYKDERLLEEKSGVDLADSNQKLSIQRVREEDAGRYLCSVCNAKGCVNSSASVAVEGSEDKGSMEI
Description: as §1

EC50 [1]: 0.0111 mg/L
Kd [2]: 2.51 nM
koff [2]: 0.000138 s⁻¹
kon [2]: 54800 M⁻¹ s⁻¹
binding result (human VEGFR1 protein): no binding (tested: 1 µg/ml)
binding result (human VEGFR3 protein): no binding (tested: 1 µg/ml)
B1: 54-H2L1 (humanized Mab54) (antibody, human IgG1, V domains shown)
VH: EVQLVESGGGLVKPGGSLRLSCAASGFTFSMYGMSWVRQAPGKRLEWVASISIGGSYTYYADSVKGRFTISRDNAKNTLYLQMNSLRAEDTAVYYCARELDGNYDYWGQGTTLTVSS
VL: DIVITQDELSLPVTFGESVSISCRSSKSLLYKDGKTYLNWFLQRPGQSPQLLIYLMSTRASGVSDRFSGSGSGTDFTLKISRVEAEDVGIYYCQQLVEYPFTFGSGTKLEIK
notes: also called 54-H2L1 (CHO); humanized 54 variant H2L1
